Measurements as given in US20240174754A1 (published 2024).

Columns and labels:
[1] = biological target: Human CD8+ T Cells; test: FACS binding to human CD8+ T cells; Donor KP63218
[2] = biological target: Human CD8+ T Cells; test: FACS binding to human CD8+ T cells; Donor KP63715

EC50 [1]: 10.8 ng/mL
EC50 [2]: 3.18 ng/mL
B1: PA015 (antibody, V domains shown)
VH: QVTLRESGPALVKPTQTLTLTCTVSGFSLSTFGMGVGWIRQPPGKALEWLAHIWWDDDKWYELALKSRLTISKDTSKNQVVLTITNMDPVDTATYYCARVIYYGSRSAYYSMDYWGQGTTVTVSS
VL: DVVMTQTPLSLSVTPGQPASISCKSSQSIVHSNAHTYLEWYLQKPGQSPQLLIYKVSNRFSGVPDRFSGSGSGTDFTLKISRVEAEDVGVYYCFQGSHVPVTFGQGTKLEIKR
